According to publication doi:10.1101/2021.09.23.461563:

Assays:
[1] = molecular target: GST-ErpB (Borrelia burgdorferi strain B31); test: SPR
[2] = molecular target: GST-ErpQ (Borrelia burgdorferi strain B31); test: SPR

B1: C1r enzyme (activated form of human C1r) (enzyme)
chain 1: SIPIPQKLFGEVTSPLFPKPYPNNFETTTVITVPTGYRVKLVFQQFDLEPSEGCFYDYVKISADKKSLGRFCGQLGSPLGNPPGKKEFMSQGNKMLLTFHTDFSNEENGTIMFYKGFLAYYQAVDLDECASRSKSGEEDPQPQCQHLCHNYVGGYFCSCRPGYELQEDTHSCQAECSSELYTEASGYISSLEYPRSYPPDLRCNYSIRVERGLTLHLKFLEPFDIDDHQQVHCPYDQLQIYANGKNIGEFCGKQRPPDLDTSSNAVDLLFFTDESGDSRGWKLRYTTEIIKCPQPKTLDEFTIIQNLQPQYQFRDYFIATCKQGYQLIEGNQVLHSFTAVCQDDGTWHRAMPRCKIKDCGQPRNLPNGDFRYTTTMGVNTYKARIQYYCHEPYYKMQTRAGSRESEQGVYTCTAQGIWKNEQKGEKIPRCLPVCGKPVNPVEQRQR
chain 2: IIGGQKAKMGNFPWQVFTNIHGRGGGALLGDRWILTAAHTLYPKEHEAQSNASLDVFLGHTNVEELMKLGNHPIRRVSVHPDYRQDESYNFEGDIALLELENSVTLGPNLLPICLPDNDTFYDLGLMGYVSGFGVMEEKIAHDLRFVRLPVANPQACENWLRGKNRMDVFSQNMFCAGHPSLKQDACQGDSGGVFAVRDPNTDRWVATGIVSWGIGCSRGYGFYTKVLNYVDWIKKEMEEED
[1]
  Kd: 100 nM
[2]
  Kd: 97 nM

B2: C1s enzyme (activated form of human C1s) (enzyme)
chain 1: EPTMYGEILSPNYPQAYPSEVEKSWDIEVPEGYGIHLYFTHLDIELSENCAYDSVQIISGDTEEGRLCGQRSSNNPHSPIVEEFQVPYNKLQVIFKSDFSNEERFTGFAAYYVATDINECTDFVDVPCSHFCNNFIGGYFCSCPPEYFLHDDMKNCGVNCSGDVFTALIGEIASPNYPKPYPENSRCEYQIRLEKGFQVVVTLRREDFDVEAADSAGNCLDSLVFVAGDRQFGPYCGHGFPGPLNIETKSNALDIIFQTDLTGQKKGWKLRYHGDPMPCPKEDTPNSVWEPAKAKYVFRDVVQITCLDGFEVVEGRVGATSFYSTCQSNGKWSNSKLKCQPVDCGIPESIENGKVEDPESTLFGSVIRYTCEEPYYYMENGGGGEYHCAGNGSWVNEVLGPELPKCVPVCGVPREPFEEKQR
chain 2: IIGGSDADIKNFPWQVFFDNPWAGGALINEYWVLTAAHVVEGNREPTMYVGSTSVQTSRLAKSKMLTPEHVFIHPGWKLLEVPEGRTNFDNDIALVRLKDPVKMGPTVSPICLPGTSSDYNLMDGDLGLISGWGRTEKRDRAVRLKAARLPVAPLRKCKEVKVEKPTADAEAYVFTPNMICAGGEKGMDSCKGDSGGAFAVQDPNDKTKFYAAGLVSWGPQCGTYGLYTRVKNYVDWIMKTMQENSTPRED
[1]
  Kd: 3.9 nM
[2]
  Kd: 4.5 nM
